The source of these data is publication PMC2958364 (Journal of molecular biology, 2008).

In assay [1] the target is αvβ6 integrin on A375Pβ6 cells (Homo sapiens (A375P alpha-V, human …, UniProt P06756;P18564)). Put plainly: flow cytometry on cells.
The target in assay [2] is αvβ6 integrin, purified from CHO αvβ6 cells (Homo sapiens (assumed), recombinant …, UniProt P06756;P18564). Put plainly: ELISA. In general terms: An ELISA detects its analyte on a solid surface through an enzyme-linked reagent.
Assay [3] concerns the target αvβ3 integrin, immobilized (Homo sapiens (assumed), UniProt P06756;P05106). Put plainly: ELISA.

Chain of αvβ6 integrin on A375Pβ6 cells (Homo sapiens (P06756 31-1048, stated change not applied, chain 1 of 2): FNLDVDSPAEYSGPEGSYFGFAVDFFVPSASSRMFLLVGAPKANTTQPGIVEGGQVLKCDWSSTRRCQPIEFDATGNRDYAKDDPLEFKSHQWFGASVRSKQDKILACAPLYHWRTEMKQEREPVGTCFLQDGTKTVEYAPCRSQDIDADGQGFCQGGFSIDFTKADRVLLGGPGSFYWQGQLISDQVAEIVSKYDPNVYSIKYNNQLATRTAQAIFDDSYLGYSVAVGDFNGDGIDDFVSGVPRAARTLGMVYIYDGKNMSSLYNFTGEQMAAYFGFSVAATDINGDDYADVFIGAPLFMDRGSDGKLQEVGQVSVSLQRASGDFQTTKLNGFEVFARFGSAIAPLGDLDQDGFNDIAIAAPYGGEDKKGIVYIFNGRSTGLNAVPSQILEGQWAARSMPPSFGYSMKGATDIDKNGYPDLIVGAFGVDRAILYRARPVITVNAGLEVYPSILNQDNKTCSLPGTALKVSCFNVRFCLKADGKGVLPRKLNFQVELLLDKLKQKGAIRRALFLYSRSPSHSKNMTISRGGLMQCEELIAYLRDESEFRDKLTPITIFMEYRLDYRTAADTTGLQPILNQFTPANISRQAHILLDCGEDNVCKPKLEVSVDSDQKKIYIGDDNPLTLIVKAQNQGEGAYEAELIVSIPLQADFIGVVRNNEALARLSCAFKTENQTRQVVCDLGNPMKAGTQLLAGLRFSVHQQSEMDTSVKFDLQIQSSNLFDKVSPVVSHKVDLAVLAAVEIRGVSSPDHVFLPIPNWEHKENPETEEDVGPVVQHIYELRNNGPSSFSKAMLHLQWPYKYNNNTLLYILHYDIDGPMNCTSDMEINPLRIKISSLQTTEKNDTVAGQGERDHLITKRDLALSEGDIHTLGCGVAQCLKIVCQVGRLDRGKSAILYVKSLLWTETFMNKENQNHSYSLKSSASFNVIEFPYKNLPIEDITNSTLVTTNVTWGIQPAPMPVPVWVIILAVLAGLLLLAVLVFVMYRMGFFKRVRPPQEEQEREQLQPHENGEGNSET
Chain of αvβ6 integrin on A375Pβ6 cells (Homo sapiens (P18564 22-788, chain 2 of 2): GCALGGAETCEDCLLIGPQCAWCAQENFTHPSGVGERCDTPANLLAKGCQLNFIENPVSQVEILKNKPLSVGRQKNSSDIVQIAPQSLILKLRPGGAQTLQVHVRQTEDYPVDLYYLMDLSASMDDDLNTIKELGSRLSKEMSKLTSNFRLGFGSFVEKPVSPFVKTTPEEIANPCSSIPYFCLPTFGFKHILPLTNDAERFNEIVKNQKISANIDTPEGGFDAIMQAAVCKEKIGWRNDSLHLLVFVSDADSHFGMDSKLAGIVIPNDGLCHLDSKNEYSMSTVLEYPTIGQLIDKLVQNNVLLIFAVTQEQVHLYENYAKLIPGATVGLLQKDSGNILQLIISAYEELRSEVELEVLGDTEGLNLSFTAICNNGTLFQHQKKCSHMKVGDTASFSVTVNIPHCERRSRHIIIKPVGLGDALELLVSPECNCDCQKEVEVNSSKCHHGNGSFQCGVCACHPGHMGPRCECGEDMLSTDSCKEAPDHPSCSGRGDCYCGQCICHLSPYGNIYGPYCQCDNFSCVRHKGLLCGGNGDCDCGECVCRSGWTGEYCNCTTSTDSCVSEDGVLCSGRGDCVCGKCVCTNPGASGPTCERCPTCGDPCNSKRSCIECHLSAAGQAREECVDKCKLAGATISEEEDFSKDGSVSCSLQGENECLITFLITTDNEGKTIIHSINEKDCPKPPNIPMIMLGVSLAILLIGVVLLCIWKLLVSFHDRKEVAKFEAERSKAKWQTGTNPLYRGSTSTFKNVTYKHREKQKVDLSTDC
Chain of αvβ3 integrin, immobilized (P06756 31-1048, chain 1 of 2): as the sequence (P06756 31-1048, stated change not applied, chain 1 of 2) above
Chain of αvβ3 integrin, immobilized (P05106 27-718, chain 2 of 2): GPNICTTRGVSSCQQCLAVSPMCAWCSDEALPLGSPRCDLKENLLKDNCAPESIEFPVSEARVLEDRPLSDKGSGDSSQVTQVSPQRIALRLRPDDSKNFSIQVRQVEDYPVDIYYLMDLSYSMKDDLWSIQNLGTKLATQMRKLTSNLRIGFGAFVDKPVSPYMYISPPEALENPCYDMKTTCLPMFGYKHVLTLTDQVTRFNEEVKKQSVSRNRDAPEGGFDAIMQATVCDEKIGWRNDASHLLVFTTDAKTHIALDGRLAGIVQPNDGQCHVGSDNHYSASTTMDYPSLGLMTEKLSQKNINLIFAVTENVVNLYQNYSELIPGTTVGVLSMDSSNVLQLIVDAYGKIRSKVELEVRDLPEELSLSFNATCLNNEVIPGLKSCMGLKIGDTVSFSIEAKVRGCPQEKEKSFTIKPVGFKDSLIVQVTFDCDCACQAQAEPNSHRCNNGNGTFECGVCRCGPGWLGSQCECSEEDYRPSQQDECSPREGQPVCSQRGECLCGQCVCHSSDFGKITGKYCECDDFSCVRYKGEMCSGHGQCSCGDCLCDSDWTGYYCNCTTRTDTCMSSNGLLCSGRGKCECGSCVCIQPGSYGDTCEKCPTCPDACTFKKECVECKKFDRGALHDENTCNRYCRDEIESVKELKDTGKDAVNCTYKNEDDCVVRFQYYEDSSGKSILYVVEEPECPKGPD
Chain of αvβ6 integrin, purified from CHO αvβ6 cells (P06756 31-1048, chain 1 of 2): as the sequence (P06756 31-1048, stated change not applied, chain 1 of 2) above
Chain of αvβ6 integrin, purified from CHO αvβ6 cells (P18564 22-788, chain 2 of 2): as the sequence (P18564 22-788, chain 2 of 2) above

B1: MFE-23 (scFv, V domains shown)
VH: QVKLQQSGAELVRSGTSVKLSCTASGFNIKDSYMHWLRQGPEQGLEWIGWIDPENGDTEYAPKFQGKATFTTDTSSNTAYLQLSSLTSEDTAVYYCNEGTPTGPYYFDYWGQGTTVTVSS
VL: ENVLTQSPAIMSASPGEKVTITCSASSSVSYMHWFQQKPGTSPKLWIYSTSNLASGVPARFSGSGSGTSYSLTISRMEAEDAATYYCQQRSSYPLTFGAGTKLELK
Turning to B1, the binding result in assay [1] is “no binding (tested: 50 μg/ml)”; in assay [2], “no binding (tested: 5 μg/ml)”; in assay [3] it was “no binding (tested: 5 μg/ml)”.
